Test results from paper PMC12990809.

How the values were obtained:
Experiment in all cases: pulldown
[1] = biological target: T1, KHDRBS3 (Homo sapiens) (UniProt O75525); details: 20 nM protein, 1.5 uM RNA pool; 20 mM HEPES pH 7.8, 70 mM KCl, 10 mM NaCl, 10% glycerol, 2 mM DTT, 0.1 ug/uL BSA; 30 min, 4 C (protocol of this paper; not …); cited from earlier work
T1 sequence: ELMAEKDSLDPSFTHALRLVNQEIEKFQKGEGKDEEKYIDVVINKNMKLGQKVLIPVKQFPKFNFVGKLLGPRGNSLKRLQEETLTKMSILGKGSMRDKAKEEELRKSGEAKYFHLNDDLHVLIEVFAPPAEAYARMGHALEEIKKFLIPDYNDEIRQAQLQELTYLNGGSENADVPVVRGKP

[2] = biological target: T2, PK07890.1 (Cannabis sativa) (UniProt A0A7J6I7X4); details: 20 nM protein, 1.5 uM RNA pool; 20 mM HEPES pH 7.8, 70 mM KCl, 10 mM NaCl, 10% glycerol, 2 mM DTT, 0.1 ug/uL BSA; 30 min, 4 C
T2 sequence: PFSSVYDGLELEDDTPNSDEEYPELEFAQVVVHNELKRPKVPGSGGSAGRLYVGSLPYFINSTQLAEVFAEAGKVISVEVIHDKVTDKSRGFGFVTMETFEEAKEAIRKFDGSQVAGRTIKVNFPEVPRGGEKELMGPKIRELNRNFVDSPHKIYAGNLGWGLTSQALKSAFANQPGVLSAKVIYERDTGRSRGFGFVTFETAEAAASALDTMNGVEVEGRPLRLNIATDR

[3] = biological target: T3, LmjF.24.1570 (Leishmania major) (UniProt Q4QAH4); details: 20 nM protein, 1.5 uM RNA pool; 20 mM HEPES pH 7.8, 70 mM KCl, 10 mM NaCl, 10% glycerol, 2 mM DTT, 0.1 ug/uL BSA; 30 min, 4 C
T3 sequence: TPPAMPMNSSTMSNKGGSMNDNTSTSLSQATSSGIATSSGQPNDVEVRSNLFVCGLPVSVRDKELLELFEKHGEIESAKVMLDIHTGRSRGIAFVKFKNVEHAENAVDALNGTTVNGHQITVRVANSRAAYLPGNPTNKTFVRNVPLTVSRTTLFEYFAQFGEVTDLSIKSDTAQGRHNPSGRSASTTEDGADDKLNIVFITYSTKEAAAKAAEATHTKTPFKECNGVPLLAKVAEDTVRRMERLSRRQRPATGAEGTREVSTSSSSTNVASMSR

[4] = biological target: lark (Drosophila melanogaster) (UniProt Q94901); details: 20 nM protein, 1.5 uM RNA pool; 20 mM HEPES pH 7.8, 70 mM KCl, 10 mM NaCl, 10% glycerol, 2 mM DTT, 0.1 ug/uL BSA; 30 min, 4 C (protocol of this paper; not …); cited from earlier work
[5] = biological target: T4, NCU00707 (Neurospora crassa) (UniProt Q7SET9); details: 20 nM protein, 1.5 uM RNA pool; 20 mM HEPES pH 7.8, 70 mM KCl, 10 mM NaCl, 10% glycerol, 2 mM DTT, 0.1 ug/uL BSA; 30 min, 4 C
T4 sequence: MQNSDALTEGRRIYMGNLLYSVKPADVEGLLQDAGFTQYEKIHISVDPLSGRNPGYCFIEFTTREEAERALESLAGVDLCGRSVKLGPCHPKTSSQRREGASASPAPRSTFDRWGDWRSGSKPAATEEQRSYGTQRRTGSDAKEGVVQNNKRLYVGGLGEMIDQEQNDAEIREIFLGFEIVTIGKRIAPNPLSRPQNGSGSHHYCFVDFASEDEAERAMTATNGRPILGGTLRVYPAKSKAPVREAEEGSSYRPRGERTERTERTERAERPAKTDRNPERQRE

[6] = biological target: T5, NCU00556 (Neurospora crassa) (UniProt Q7SF93); details: 20 nM protein, 1.5 uM RNA pool; 20 mM HEPES pH 7.8, 70 mM KCl, 10 mM NaCl, 10% glycerol, 2 mM DTT, 0.1 ug/uL BSA; 30 min, 4 C
T5 sequence: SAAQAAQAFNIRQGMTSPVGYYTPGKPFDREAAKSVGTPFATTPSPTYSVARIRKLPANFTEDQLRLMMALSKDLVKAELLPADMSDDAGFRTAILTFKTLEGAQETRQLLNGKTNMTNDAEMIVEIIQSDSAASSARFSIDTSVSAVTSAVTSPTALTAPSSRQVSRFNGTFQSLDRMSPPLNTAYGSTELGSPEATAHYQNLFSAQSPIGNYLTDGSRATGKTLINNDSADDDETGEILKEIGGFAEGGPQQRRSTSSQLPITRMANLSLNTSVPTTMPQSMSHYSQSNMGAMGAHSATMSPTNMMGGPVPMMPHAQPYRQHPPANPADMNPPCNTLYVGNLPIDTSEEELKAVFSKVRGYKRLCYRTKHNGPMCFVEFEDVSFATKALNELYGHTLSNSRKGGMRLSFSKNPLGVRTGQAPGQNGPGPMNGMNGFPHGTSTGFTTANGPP

[7] = biological target: T6, Tb927.7.320 T9S (Trypanosoma brucei) (UniProt Q57U22); details: 20 nM protein, 1.5 uM RNA pool; 20 mM HEPES pH 7.8, 70 mM KCl, 10 mM NaCl, 10% glycerol, 2 mM DTT, 0.1 ug/uL BSA; 30 min, 4 C
T6 sequence: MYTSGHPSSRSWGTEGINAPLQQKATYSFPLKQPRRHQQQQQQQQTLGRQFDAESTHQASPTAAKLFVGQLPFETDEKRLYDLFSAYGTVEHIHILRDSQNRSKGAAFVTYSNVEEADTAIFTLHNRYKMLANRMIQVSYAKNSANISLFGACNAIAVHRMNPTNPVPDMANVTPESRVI

[8] = tested on: T7, ENSMODG00000011903 (Monodelphis domestica); details: 20 nM protein, 1.5 uM RNA pool; 20 mM HEPES pH 7.8, 70 mM KCl, 10 mM NaCl, 10% glycerol, 2 mM DTT, 0.1 ug/uL BSA; 30 min, 4 C
T7 sequence: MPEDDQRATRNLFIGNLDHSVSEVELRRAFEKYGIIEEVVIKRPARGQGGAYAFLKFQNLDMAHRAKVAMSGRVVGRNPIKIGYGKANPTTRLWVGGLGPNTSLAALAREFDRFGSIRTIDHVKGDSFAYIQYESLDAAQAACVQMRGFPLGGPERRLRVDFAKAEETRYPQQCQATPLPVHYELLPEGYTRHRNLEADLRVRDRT

[9] = biological target: T8, ENSGALG00000014089 (Gallus gallus) (UniProt A0A8V0XZS6); details: 20 nM protein, 1.5 uM RNA pool; 20 mM HEPES pH 7.8, 70 mM KCl, 10 mM NaCl, 10% glycerol, 2 mM DTT, 0.1 ug/uL BSA; 30 min, 4 C
T8 sequence: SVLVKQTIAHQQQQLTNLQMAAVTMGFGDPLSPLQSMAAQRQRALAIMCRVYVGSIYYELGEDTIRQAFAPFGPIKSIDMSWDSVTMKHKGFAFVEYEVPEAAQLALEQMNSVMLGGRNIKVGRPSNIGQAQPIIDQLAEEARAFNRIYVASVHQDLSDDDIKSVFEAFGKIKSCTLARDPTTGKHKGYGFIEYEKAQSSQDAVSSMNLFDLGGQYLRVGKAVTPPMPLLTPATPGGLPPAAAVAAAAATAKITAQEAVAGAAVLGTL

lark (Drosophila melanogaster), sequence (Q94901 1-207): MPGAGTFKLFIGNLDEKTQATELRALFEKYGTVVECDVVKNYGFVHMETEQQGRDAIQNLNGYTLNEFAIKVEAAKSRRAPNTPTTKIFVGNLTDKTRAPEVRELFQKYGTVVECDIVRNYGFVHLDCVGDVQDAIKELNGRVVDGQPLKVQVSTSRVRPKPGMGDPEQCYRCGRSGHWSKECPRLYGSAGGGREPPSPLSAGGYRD

GAUAAAC [RNAcompete motif RNCMPT00034]
binding signal (z-score (mean of top ten 7-mers)) [1]: 9.52

GAUACU [RNAcompete motif RNCMPT00790]
binding signal (z-score (mean of top ten 7-mers)) [2]: 15.3

UAUACU [RNAcompete motif RNCMPT00761]
binding signal (z-score (mean of top ten 7-mers)) [3]: 22.5

UCGCGCG [RNAcompete motif RNCMPT00097]
binding signal (z-score (mean of top ten 7-mers)) [4]: 15.5

UUAUGA [RNAcompete motif RNCMPT00768]
binding signal (z-score (mean of top ten 7-mers)) [5]: 7.83

UUGCAU [RNAcompete motif RNCMPT00754]
binding signal (z-score (mean of top ten 7-mers)) [6]: 14.3

UUUGCUU [RNAcompete motif RNCMPT00751]
binding signal (z-score (mean of top ten 7-mers)) [7]: 12.5

UUUUUUG [RNAcompete motif RNCMPT00758]
binding signal (z-score (mean of top ten 7-mers)) [8]: 7.84

UUUUUUU [RNAcompete motif RNCMPT00760]
binding signal (z-score (mean of top ten 7-mers)) [9]: 11.4
